Assay results taken from the supplement of paper PMC10126150.
± gives the standard deviation of the averaged measurements.

Test system: ATP
Assay: switch fluorescence ratio, 500 uM ATP over buffer (Cy3 cluster intensity, sum of 5 cycles each) (fold (ratio)); higher = stronger signal-on switching upon ATP binding; sequences stand for … in TCGTCGGCAGCGTCAGATGTGTATAAGAGACAGTTTTTTTTTTTTTTTTTTTTTTTTT…TC
Conditions: aptamer strand: ATP DNA aptamer (quencher-CACCTGGGGGAGTATTGCGGAGGAAGG + anchor), 100 nM annealed; ATP concentration: 500 uM
In short: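 The quencher-labelled ATP aptamer, at 100 nM, was annealed to Cy3-labelled switching-strand clusters on a modified Illumina MiSeq flow-cell. The clusters were imaged in selection buffer, then after 15 min with 500 uM ATP at 22 °C, and this buffer/ATP cycle ran five times with NaOH stripping and re-annealing between runs. Per-cluster fluorescence ratios, summed target-cycle over summed buffer-cycle Cy3 intensity, were averaged per switch-domain sequence. Clusters outside 100-1000 RFU were excluded.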
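Also: ATP exposure 15 min at 22 °C before imaging.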

Sequence | switch fluorescence ratio
CGATTGAGCA | 0.994 ± 0.031
TTTGCCAGGA | 0.997 ± 0.0063
CGGGGGCTTG | 0.975 ± 0.02
AGAGGAAAAC | 1.08 ± 0.023
GGCCGGCCAG | 1.01 ± 0.047
ATCGCTAGCT | 0.9905 ± 0.0068
TTTTCTCCTC | 1.31 ± 0.35
ATTGGAATTG | 1.02 ± 0.035
ATGGTGGATG | 0.9626 ± 0.0052
GATGTATGGA | 0.997 ± 0.027
AGGGTGAACC | 0.99 ± 0.016
GGAAAGTCGT | 1.03 ± 0.018
AAAGGAGGGT | 0.9994 ± 0.0062
TGATGGGTAG | 0.998 ± 0.028
ATGGATAAGG | 1.01 ± 0.024
ATTATAGGG | 1 ± 0.015
GGATAATAGT | 0.9916 ± 0.0082
ATGCGCAAGG | 1.25 ± 0.033
TCTCCTGGCT | 1.01 ± 0.014
TATGGCCAGC | 0.994 ± 0.047
ATAAGTACTC | 1.28 ± 0.1
TGGGGCCCGG | 0.984 ± 0.019
TGTGGTCGGG | 0.993 ± 0.038
CATCGGGGTA | 1.02 ± 0.029
CGGCTCTTAG | 0.99 ± 0.011

Sequence | switch fluorescence ratio
ATCGTCGGAT | 0.982 ± 0.022
TTAGTTATAT | 1.013 ± 0.0099
TATATTGACC | 1.04 ± 0.03
AAGTATTGTT | 1 ± 0.019
TTATTAAGAA | 1.02 ± 0.063
TTTATAAGGG | 0.995 ± 0.013
GCGGTAATCG | 1.03 ± 0.032
CACTTGGTGG | 0.96 ± 0.038
ATGATTATAT | 0.99 ± 0.017
GGAATTGGGG | 1.01 ± 0.027
CGGGGCAAAG | 1.96 ± 1.6
TGTTTACGGT | 0.983 ± 0.032
GCCGTGTTGG | 1 ± 0.032
GGTGAGGGGT | 0.997 ± 0.035
TCGTGGGTGG | 1.03 ± 0.056
ATTGTTTGGC | 1 ± 0.027
ATTCTACTGA | 1.06 ± 0.062
CGTATGAGGG | 0.9679 ± 0.0066
TTGTGTGTGG | 0.976 ± 0.021
TGTCTGGGGT | 1 ± 0.019
ATCTGACTCC | 2.52 ± 0.19
GGATGAGGGT | 0.986 ± 0.018
AGCGCGGTAA | 1 ± 0.013
TAAGTGGGAA | 1.01 ± 0.035
TAATGTTTGT | 0.986 ± 0.048

Sequence | switch fluorescence ratio
TAAGGGAAGC | 1.04 ± 0.04
TAAGGCTAGT | 0.969 ± 0.01
GAGATTGGGG | 0.99 ± 0.022
CTTTTTGGGT | 0.968 ± 0.028
TACGTGAATT | 1.04 ± 0.05
AGGTAGGTCC | 0.998 ± 0.022
TTATCATAGT | 1.005 ± 0.0064
TACAAAGCAG | 1.11 ± 0.037
AAGGTTGGGA | 0.962 ± 0.039
TTCATGCATC | 1.83 ± 1.2
TTTGTTGGGT | 1 ± 0.022
AACAGGGAGG | 0.993 ± 0.032
GACTATGACC | 1.05 ± 0.013
CGCCTTTTAT | 0.98204 ± 0.00038
TTTTGCTTGG | 1.01 ± 0.015
CGGGATCCAC | 1.01 ± 0.034
AAAAGTATTA | 1.01 ± 0.025
GGCTTAGACG | 0.959 ± 0.063
CTACTTTGGG | 1.01 ± 0.027
CCACGGGATG | 1.09 ± 0.03
TTTTGTACGT | 1.02 ± 0.041
CTTTATAGGC | 1.04 ± 0.017
GCTAGTTGGT | 0.99 ± 0.017
TTTCGGTCCC | 1.02 ± 0.021
TTGCAGGGT | 0.9804 ± 0.0019

Sequence | switch fluorescence ratio
CTACTAGAGC | 1.02 ± 0.044
CGATGGGAAA | 1.01 ± 0.014
TACTTTTGAC | 1.04 ± 0.011
GGTTGCTGTC | 0.964 ± 0.045
GGGGCCCACG | 1.002 ± 0.006
TAAAATGGTT | 1.02 ± 0.032
CGGGAAAATG | 0.988 ± 0.012
CGGCGGCAGG | 0.9881 ± 0.0068
TGGTGGATCT | 0.9904 ± 0.0063
GTATGCTTTT | 1.034 ± 0.0043
GGGGGTGAAG | 0.971 ± 0.016
TTGGTTAATG | 1.01 ± 0.019
AGGTAAATTC | 2.33 ± 0.63
GCTTTCGATC | 1.05 ± 0.033
CGTAGGCCGA | 0.952 ± 0.068
CCGCGGGGAG | 1.1 ± 0.041
GTGAATGCTG | 0.938 ± 0.048
AGGTTCTTTG | 0.974 ± 0.026
AAAAGCGGGT | 0.997 ± 0.023
AATGGCGGGT | 0.996 ± 0.034
GTGATTATGG | 0.981 ± 0.028
TGCTAGGCTA | 1.02 ± 0.025
ATTGAGGTTT | 0.992 ± 0.022
TGGGAGCCTG | 0.987 ± 0.015
TCAACTTTTG | 0.9856 ± 0.0022

Sequence | switch fluorescence ratio
TGCTCGGGCA | 1.014 ± 0.0072
ATTAGTGATG | 0.989 ± 0.016
GGGTGCACAC | 1.09 ± 0.095
TCGCAAATTT | 1.3 ± 0.12
CTCGGATGTC | 0.991 ± 0.022
CATTAAAATT | 0.994 ± 0.028
ATGATAGGGG | 0.998 ± 0.023
GATGCAAGAG | 3.78 ± 0.7
TGGATAATTT | 0.9962 ± 0.0084
TTCTTCATTT | 1.22 ± 0.26
AAAGATTAGT | 0.9713 ± 0.0097
ACTTATGCAT | 1.055 ± 0.0046
GAATTAGGTT | 1.01 ± 0.077
TGTTTCATGC | 1.07 ± 0.16
TATCAGGGCT | 0.999 ± 0.057
GAAATGGGTT | 0.957 ± 0.063
TTTTCGTGCT | 0.956 ± 0.05
CCGGGTGACA | 1.25 ± 0.048
ATTGGTCCTG | 0.999 ± 0.02
CACGGACCTA | 1.363 ± 0.012
CCACGATTAC | 3.44 ± 1.3
TTGGTGACGG | 0.986 ± 0.013
TAAAATTGTT | 0.991 ± 0.052
CCGGCAGGAT | 0.988 ± 0.011
TAGACAATTT | 1 ± 0.00074

Sequence | switch fluorescence ratio
CACCTCATAA | 1.06 ± 0.011
TTGAGTATGG | 0.976 ± 0.028
GCAGCTGGG | 1.03 ± 0.039
GGCGGGTCGG | 0.972 ± 0.029
ATCATTGCGG | 0.9746 ± 0.0012
TGCAAAATAA | 1.17 ± 0.24
TAAATACTCA | 1.16 ± 0.083
CTCGGATAAG | 0.9922 ± 0.007
CTAGGAGATA | 0.9736 ± 0.0014
GGGGCAGGTT | 0.977 ± 0.038
GTAGTTGGAG | 0.992 ± 0.034
CAGATGCCTC | 1.012 ± 0.0086
ATTAGATGGT | 1.02 ± 0.024
ACTATGGGGA | 1.01 ± 0.0026
TCAAGGTATT | 1 ± 0.034
TTTTACAGCG | 1 ± 0.036
TATGGGTTCT | 1 ± 0.031
TTGTTAAATC | 1.02 ± 0.038
TGGAAAAGAT | 0.995 ± 0.016
GGGGTACTTG | 1.01 ± 0.02
TCGGGGTTTG | 1 ± 0.016
GCAGGGATGC | 1 ± 0.057
AGGAAATGGG | 1 ± 0.036
TTCGTCGCTG | 0.999 ± 0.037
ATATGACGCT | 1.04 ± 0.09

Sequence | switch fluorescence ratio
TGACGGTGGC | 1.02 ± 0.017
CGTTTGTGCG | 1.01 ± 0.053
AGGAAAGTTT | 0.955 ± 0.028
CTAAAGGTTT | 1.004 ± 0.003
GGTTTTGTTA | 1.03 ± 0.086
AGGGTTGGGG | 0.991 ± 0.031
AATATAGAAG | 0.984 ± 0.033
ACAGTTTTGG | 1.017 ± 0.0047
TGTCGGTAAT | 1.03 ± 0.022
TGCGTTAAGG | 1 ± 0.031
CTGGTGACTG | 0.986 ± 0.096
GGGATCAGAA | 0.999 ± 0.074
CGCGTGGATC | 1.06 ± 0.047
GGTTGTTGGA | 0.999 ± 0.0057
TGGGACATGT | 1.02 ± 0.019
AGGCCACTCG | 0.978 ± 0.0036
CACTGTGACA | 1.083 ± 0.0052
GCTCAAGCGA | 1.464 ± 0.0035
TGTTAAAAAG | 0.991 ± 0.013
TGGGGGAAAG | 0.993 ± 0.026
TGAGGGTGGG | 1.01 ± 0.058
TGCTATTGGT | 1.03 ± 0.035
GAGTTCGTTT | 1.02 ± 0.011
TTAATTGTGT | 0.993 ± 0.0095
TTCTAATGTA | 0.993 ± 0.021

Sequence | switch fluorescence ratio
TTACTTTAGG | 1.05 ± 0.023
TAGTAAATAT | 1.006 ± 0.0041
GTTGATTCTA | 0.988 ± 0.034
GCGATTATGG | 0.977 ± 0.019
GTAGGGGGAG | 0.9884 ± 0.004
AACATGCTTA | 0.972 ± 0.02
ATCGGGTGTA | 0.994 ± 0.013
GGTATTGTTT | 0.9881 ± 0.0066
TTGTGGGTGT | 1.004 ± 0.0082
ACTGGGGCCG | 1.01 ± 0.056
ACATGGGCGT | 0.977 ± 0.036
TTGAATTGGT | 0.995 ± 0.036
CGATTTAGCG | 0.9773 ± 0.009
GTGGTAACTT | 1.007 ± 0.0082
GTGGTCGTGC | 0.9761 ± 0.0041
TCGCCGGGCG | 0.993 ± 0.0075
ACATCAGATC | 1 ± 0.011
GCAAGGGGAT | 1.06 ± 0.11
GATTGGTACT | 1 ± 0.02
GGGAAGCGTT | 0.997 ± 0.012
ATGCGAAGAT | 1.01 ± 0.011
GCTTGGGGTG | 1.02 ± 0.024
TTAGAAGGTA | 0.995 ± 0.035
TGCAGGAGAA | 0.9718 ± 0.0087
CCGCGGGATT | 1.28 ± 0.32
